In doi:10.1101/2020.12.15.408237:

Target: Staphylococcus aureus FrmB (Staphylococcus aureus Newman)
Assay: SEC

Substance: Staphylococcus aureus FrmB (enzyme)
- stoichiometry N: 2
